Assay results: patent US20250009852A1, “DEPLETING EGFR AND HER2 OVERCOMES RESISTANCE TO EGFR INHIBITORS IN COLORECTAL CANCER” (Health Research, Inc., priority 2021, published 2025)

How the values were obtained:
[1] = target: Epidermal growth factor receptor (EGFR), wild type, P00533
[2] = target: T1, Epidermal growth factor receptor (EGFR), wild type (human, UniProt P00533 25-1210); experiment: immunofluorescence staining and confocal microscopy of SW48 cells treated with PEPD^G278D (25 nM), anti-His tag and anti-EGFR
T1 construct: whole, on cells; also called WT EGFR; ErbB1
Description: The cells were then washed with ice-cold PBS, fixed with 4% paraformaldehyde for 20 min at room temperature (RT), washed again with ice-cold PBS and blocked with 1% BSA in PBS for 1 h at RT. […] The cells were then examined with a BZ-X700 fluorescence microscope (Keyence) with a S PL FL ELWD ADM 40xC objective. Merged images from Z-stack were organized using the ImageJ software (NIH Image).
SW48 cells were cultured in serum-free medium.

B1: PEPD^G278D (recombinant, enzymatically inactive mutant of human peptidase D, glycine 278 replaced by aspartic acid) (enzyme)
chain: AAATGPSFWLGNETLKVPLALFALNRQRLCERLRKNPAVQAGSIVVLQGGEETQRYCTDTGVLFLQESFFHWAFGVTEPGCYGVIDVDTGKSTLFVPRLPASHATWMGKIHSKEHFKEKYAVDDVQYVDEIASVLTSQKPSVLLTLRGVNTDSGSVCREASFDGISKFEVNNTILHPEIVESRVFKTDMELEVLRYTNKISSEAHREVMKAVKVGMKEYGLESLFEHYCYSRGGMRHSSYTCICGSGENSAVLHYGHAGAPNDRTIQNGDMCLFDMDGEYYSVASDITCSFPRNGKFTADQKAVYEAVLLSSRAVMGAMKPGDWWPDIDRLADRIHLEELAHMGILSGSVDAMVQAHLGAVFMPHGLGHFLGIDVHDVGGYPEGVERIDEPGLRSLRTARHLQPGMVLTVEPGIYFIDHLLDEALADPARASFLNREVLQRFRGFGGVRIEEDVVVIDSGIELLTCVPRTVEEIEACMAGCDKAFTPFSGPK
notes: Made in E. coli and purified by nickel chromatography; The His tag is placed C-terminal by the plasmid's name only; also called PEPD^G278D-His; hPEPD-G278D; not shown: His tag from pBAD/TOPO-PEPD^G278D-His
expression and tyrosine phosphorylation of EGFR (Western blotting, 25 nM, 48 h) [1]: PEPD^G278D obliterated both expression and tyrosine phosphorylation of EGFR and HER2 in SW48, HCT116 and HT29 cells | expression and tyrosine phosphorylation of HER2 (Western blotting, 25 nM, 48 h) (HER2, P04626): PEPD^G278D obliterated both expression and tyrosine phosphorylation of EGFR and HER2 in SW48, HCT116 and HT29 cells | binding result [2]: binds
